Reference: patent publication US20140335016A1

Target: amyloid-β 1-42 fibers (fAβ42) (human) (UniProt P05067)
Assay: cell-based or functional assay

Sequence of amyloid-β 1-42 fibers (fAβ42) (human) (P05067 672-713 limits assumed): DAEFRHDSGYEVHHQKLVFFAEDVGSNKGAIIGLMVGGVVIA

M13 filamentous bacteriophage, Construct 2 (wild type M13 isolate, GenBank JX412914.1)
filter trap assay, concentration that reduces aggregates to a similar level: 1.7 nM
